Results on one substance are retold here after article PMC535902.

The target of experiment [1] is Rhodobacter capsulatus porphobilinogen synthase (Rhodobacter capsulatus) (UniProt P42504). Kind of experiment: AUC; sedimentation equilibrium, 4 °C, 10 mM Tris-HCl pH 7.7 with 0.1 mM DTT or 1 mM βME, 12.3 uM in monomer (440 ug/ml), 8,000-14,000 rpm, global fit to a single species model.
For experiment [2] the target is unchanged. Kind of experiment: SEC; Superose 6 (10 x 300 mm), 0.5 ml/min, 100 mM BTP pH 8.6, 100 uL of a 200 ug/ml solution; column calibrated with standards.
For experiment [3] the target is unchanged.

In general, stoichiometry N refers to a count of units in the complex or per binding partner. On to “Rhodobacter capsulatus porphobilinogen synthase (from UniProt P42504 1-332) (enzyme)”, for which the stoichiometry N in experiment [1] and in experiment [2] was 6 throughout. In experiment [3], this substance yielded a specific activity of the enzyme against protein concentration (0.01 to 40 ug/ml; from ~150 at the lowest to ~450 umol h^-1 mg^-1 at the highest) (μmol h^-1 mg^-1) of 450.
